Measured values from publication PMC12138080 (Acta Pharmaceutica Sinica. B, 2025).

Biological target: T1, Human GRK2 protein (His Tag) (human, UniProt P25098 1-689)
T1 sequence: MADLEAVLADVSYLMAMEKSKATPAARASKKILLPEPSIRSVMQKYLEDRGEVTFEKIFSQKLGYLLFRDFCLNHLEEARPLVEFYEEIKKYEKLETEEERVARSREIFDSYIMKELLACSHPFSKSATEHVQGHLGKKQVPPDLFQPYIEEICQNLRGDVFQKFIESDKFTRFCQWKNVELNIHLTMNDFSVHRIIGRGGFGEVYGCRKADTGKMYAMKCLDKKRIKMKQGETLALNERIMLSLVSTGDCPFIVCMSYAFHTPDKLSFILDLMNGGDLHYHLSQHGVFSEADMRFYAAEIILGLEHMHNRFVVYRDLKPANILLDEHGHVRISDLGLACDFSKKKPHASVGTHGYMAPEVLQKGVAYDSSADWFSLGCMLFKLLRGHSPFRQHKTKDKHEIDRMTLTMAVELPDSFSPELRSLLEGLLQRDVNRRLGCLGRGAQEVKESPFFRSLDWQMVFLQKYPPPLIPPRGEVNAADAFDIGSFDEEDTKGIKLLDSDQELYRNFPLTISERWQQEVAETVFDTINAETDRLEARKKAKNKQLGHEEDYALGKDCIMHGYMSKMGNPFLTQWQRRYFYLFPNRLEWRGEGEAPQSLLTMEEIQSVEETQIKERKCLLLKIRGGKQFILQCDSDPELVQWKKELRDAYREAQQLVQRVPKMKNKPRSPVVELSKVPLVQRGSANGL
Assay: SPR

- Kd: 31.2 nM
B1: Human TRAF2 protein (His Tag) (natural protein)
chain: MAAASVTPPGSLELLQPGFSKTLLGTKLEAKYLCSACRNVLRRPFQAQCGHRYCSFCLASILSSGPQNCAACVHEGIYEEGISILESSSAFPDNAARREVESLPAVCPSDGCTWKGTLKEYESCHEGRCPLMLTECPACKGLVRLGEKERHLEHECPERSLSCRHCRAPCCGADVKAHHEVCPKFPLTCDGCGKKKIPREKFQDHVKTCGKCRVPCRFHAIGCLETVEGEKQQEHEVQWLREHLAMLLSSVLEAKPLLGDQSHAGSELLQRCESLEKKTATFENIVCVLNREVERVAMTAEACSRQHRLDQDKIEALSSKVQQLERSIGLKDLAMADLEQKVLEMEASTYDGVFIWKISDFARKRQEAVAGRIPAIFSPAFYTSRYGYKMCLRIYLNGDGTGRGTHLSLFFVVMKGPNDALLRWPFNQKVTLMLLDQNNREHVIDAFRPDVTSSSFQRPVNDMNIASGCPLFCPVSKMEAKNSYVRDDAIFIKAIVDLTGL
